Legend:
[1] = target: T1, C-reactive protein (CRP) (human) (UniProt P02741); assay: SPR; settings: Ugu; SPR (ProteON XPR36) at 25 C in SB: 40 mM HEPES pH 7.5, 125 mM NaCl, 5 mM KCl, 1 mM MgCl2, 0.01% Tween 20; aptamer immobilized via 3' A20/T20 hybridized to …
T1 sequence: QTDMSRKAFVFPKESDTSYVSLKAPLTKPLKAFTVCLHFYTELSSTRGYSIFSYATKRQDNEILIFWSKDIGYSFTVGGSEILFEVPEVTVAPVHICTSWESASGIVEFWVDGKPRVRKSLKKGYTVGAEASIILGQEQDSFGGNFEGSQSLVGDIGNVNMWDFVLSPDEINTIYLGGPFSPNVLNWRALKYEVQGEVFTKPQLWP

[2] = target: Lactate dehydrogenase-5 (LDH-5) (human) (UniProt P00338); assay: SPR; settings: Aad; SPR (ProteON XPR36) at 25 C in SB: 40 mM HEPES pH 7.5, 125 mM NaCl, 5 mM KCl, 1 mM MgCl2, 0.01% Tween 20; aptamer immobilized via 3' A20/T20 hybridized to …

With “CGCACATCAGTTTAGCTAGTTCTGCCTTAATATGGTCGGTTAAGCGCA [CRP-Ugu4-3]” the Kd [1] was 0.0062 nM.
“TGCTGCTGGCTCGTGAGACGGATATCAGGTCTCCTAAGGCTGGC [LDH-Aad1-3]” gave a Kd [2] of 0.235 nM.

— paper PMC7215426
